Patent US20180072810A1 (published 2018)

Biological target: T1, cynomolgus PD-1 Fc fusion (cynomolgus monkey, UniProt B0LAJ3 25-170)
T1 construct: also called Cyno PD-1 (ELISA)
Assay: ELISA on plate-bound cynomolgus PD-1 Fc fusion

T1 sequence (B0LAJ3 entry or part of it limits assumed, form in doubt): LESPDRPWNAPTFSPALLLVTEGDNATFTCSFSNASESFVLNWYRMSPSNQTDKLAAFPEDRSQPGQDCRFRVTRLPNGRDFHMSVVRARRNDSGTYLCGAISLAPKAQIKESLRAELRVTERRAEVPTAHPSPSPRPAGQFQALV

EC50: 0.07 nM
B1: Nivolumab (antibody, V domains shown)
VH: QVQLVESGGGVVQPGRSLRLDCKASGITFSNSGMHWVRQAPGKGLEWVAVIWYDGSKRYYADSVKGRFTISRDNSKNTLFLQMNSLRAEDTAVYYCATNDDYWGQGTLVTVSS
VL: EIVLTQSPATLSLSPGERATLSCRASQSVSSYLAWYQQKPGQAPRLLIYDASNRATGIPARFSGSGSGTDFTLTISSLEPEDFAVYYCQQSSNWPRTFGQGTKVEIK
